Results on 4 molecules are retold here after article PMC6599478 (Mucosal immunology, 2019).

B1: MN V3 complete V3 loop peptide (33 amino acid linear peptide, wild type) (peptide)
peptide: TRPNYNKRKRIHIGPGRAFYTTKNIIGTIRQAH
B2: MNV3 321/322 Mutant peptide (K321A/N322A) (peptide)
peptide: TRPNYNKRKRIHIGPGRAFYTTAAIIGTIRQAH
B3: MNV3 Quad Mutant peptide (K321A/N322A/T326A/I327A) (peptide)
peptide: TRPNYNKRKRIHIGPGRAFYTTAAIIGAARQAH
B4: MNV3 326/327 Mutant peptide (T326A/I327A) (peptide)
peptide: TRPNYNKRKRIHIGPGRAFYTTKNIIGAARQAH

Chain of recombinant full length Tenascin-C, large isoform (TNC-L) (P24821 23-2201): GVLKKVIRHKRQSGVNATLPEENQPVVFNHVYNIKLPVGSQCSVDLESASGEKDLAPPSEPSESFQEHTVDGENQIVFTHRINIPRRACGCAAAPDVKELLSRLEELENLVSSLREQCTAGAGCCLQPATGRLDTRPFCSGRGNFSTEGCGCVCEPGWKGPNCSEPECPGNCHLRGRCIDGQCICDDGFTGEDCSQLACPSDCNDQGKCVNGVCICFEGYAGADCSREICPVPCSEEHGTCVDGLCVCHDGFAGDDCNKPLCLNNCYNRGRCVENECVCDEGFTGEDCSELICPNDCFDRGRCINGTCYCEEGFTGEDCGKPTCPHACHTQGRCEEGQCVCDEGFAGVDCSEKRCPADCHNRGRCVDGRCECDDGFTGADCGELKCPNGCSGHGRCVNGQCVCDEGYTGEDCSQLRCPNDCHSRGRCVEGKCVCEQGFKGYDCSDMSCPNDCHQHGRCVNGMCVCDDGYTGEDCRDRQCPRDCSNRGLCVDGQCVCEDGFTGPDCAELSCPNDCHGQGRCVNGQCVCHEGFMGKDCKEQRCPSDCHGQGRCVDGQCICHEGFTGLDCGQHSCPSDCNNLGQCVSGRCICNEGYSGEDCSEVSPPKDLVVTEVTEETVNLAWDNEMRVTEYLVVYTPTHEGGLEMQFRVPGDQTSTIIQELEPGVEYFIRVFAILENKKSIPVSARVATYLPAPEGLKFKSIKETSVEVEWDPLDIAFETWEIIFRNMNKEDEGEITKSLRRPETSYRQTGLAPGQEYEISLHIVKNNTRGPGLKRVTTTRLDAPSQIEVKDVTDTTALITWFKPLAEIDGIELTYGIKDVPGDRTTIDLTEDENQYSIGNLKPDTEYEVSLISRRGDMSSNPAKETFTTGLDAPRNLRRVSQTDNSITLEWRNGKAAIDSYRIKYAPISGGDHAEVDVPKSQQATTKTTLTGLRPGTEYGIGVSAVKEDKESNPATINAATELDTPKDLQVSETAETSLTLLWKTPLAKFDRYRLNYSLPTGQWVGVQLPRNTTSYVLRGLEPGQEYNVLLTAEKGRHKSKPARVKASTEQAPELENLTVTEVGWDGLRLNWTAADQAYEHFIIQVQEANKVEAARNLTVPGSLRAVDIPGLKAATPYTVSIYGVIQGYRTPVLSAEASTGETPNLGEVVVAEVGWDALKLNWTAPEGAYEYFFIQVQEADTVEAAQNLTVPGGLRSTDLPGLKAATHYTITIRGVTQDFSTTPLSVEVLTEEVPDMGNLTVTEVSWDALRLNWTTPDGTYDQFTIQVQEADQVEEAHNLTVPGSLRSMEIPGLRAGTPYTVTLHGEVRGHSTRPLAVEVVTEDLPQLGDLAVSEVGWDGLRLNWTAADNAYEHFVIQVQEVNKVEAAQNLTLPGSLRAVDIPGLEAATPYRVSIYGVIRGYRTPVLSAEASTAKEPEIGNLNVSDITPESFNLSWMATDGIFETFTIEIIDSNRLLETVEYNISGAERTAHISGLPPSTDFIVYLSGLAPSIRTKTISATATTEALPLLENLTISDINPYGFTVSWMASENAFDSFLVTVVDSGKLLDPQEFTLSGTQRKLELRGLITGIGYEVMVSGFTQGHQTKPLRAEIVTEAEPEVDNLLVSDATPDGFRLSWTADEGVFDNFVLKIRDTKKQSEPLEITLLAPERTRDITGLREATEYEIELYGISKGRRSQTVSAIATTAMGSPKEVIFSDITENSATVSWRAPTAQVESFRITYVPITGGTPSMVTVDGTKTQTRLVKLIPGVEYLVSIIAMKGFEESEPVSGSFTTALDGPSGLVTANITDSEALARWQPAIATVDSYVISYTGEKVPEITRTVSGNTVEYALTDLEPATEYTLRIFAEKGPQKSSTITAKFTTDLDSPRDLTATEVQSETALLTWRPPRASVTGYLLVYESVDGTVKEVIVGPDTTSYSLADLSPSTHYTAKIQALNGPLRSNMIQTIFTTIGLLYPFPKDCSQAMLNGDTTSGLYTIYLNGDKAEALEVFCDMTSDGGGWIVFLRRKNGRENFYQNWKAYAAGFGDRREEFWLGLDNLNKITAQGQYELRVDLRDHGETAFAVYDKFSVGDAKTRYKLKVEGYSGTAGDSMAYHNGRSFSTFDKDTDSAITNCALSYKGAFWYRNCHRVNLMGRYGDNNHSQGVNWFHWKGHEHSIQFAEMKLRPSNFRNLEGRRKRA

The experiment has as its target recombinant full length Tenascin-C, large isoform (TNC-L) (human, UniProt P24821 23-2201). Description: ELISA.
As for B1, the binding result is “binds”.

On to B2, for which the binding result is “binds”.

In the case of B3, the binding result is reported as “binds”.

Consider B4, for which the binding result was “binds”.
